Laboratory results published in KR20180095349A (dated 2018).

T1: VEGF 항원 단백질 (VEGF-His) (UniProt P15692-4 27-191, limits assumed)
T1 construct: Expressed from pN293-VEGF in HEK293F cells, purified on Ni-NTA and by gel filtration; also called 혈관 내피세포 성장인자
T1 sequence: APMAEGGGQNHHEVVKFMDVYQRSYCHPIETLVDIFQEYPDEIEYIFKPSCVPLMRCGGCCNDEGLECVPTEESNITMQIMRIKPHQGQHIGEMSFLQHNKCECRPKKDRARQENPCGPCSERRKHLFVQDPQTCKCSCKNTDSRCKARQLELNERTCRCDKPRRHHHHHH


Target: T1, VEGF 항원 단백질 (VEGF-His)
Experiment: ELISA on plate-coated VEGF-His (100 ng/well), IgG diluted 1/2 from 50 nM, anti-human Fc-HRP, fit in GraphPad Prism

| Kd [nM] | Binder |
| --- | --- |
| 0.06 | 항-VEGF 단일클론 인간항체 3H1 (IgG형) (antibody, V domains shown) VH: QVQLVESGGGLVKPGGSLRLSCAASGFIFSRYGMNWVRQAPGKGLEWVSSISGSSNYRYYADSVKGRFTISRDNAKNSLYLQMNSLRAEDTAVYYCARDASWGLIQGLDSWGQGTLVTVSS VL: DIQMTQSPSSLSASVGDRVTITCRASQSISSYLNWYQQEPGKAPKLLIYDASSLQSGVPSRFSGGGSGTDFTLTISSLQPEDFAAYYCQQSYSTPYTFGQGTKVDIK |
| 0.025 | 항-VEGF 단일클론 인간항체 4C4 (IgG형) (antibody, V domains shown) VH: QVQLVQSGAEVKKPGSSVKVSCKASGGTFSSSAFSWVRQAPGHGLEWMGRIIPMFDMTDYAQRFQGRLTIIADESSSTAYMELSSLRSEDTAVYYCARYKSGSYGMDVWGQGTTVTVSS VL: NFMLTQPASVSGSPGQSITISCTGSSSDVGGYNYVSWYQQHPGKAPQLIIYDVTKRPSGVSNRFSGSKSGNSASLTISGLQAEDEADYYCSSYSSSTFYVFGTGTKVTVL |
| 0.05 | 항-VEGF 단일클론 인간항체 7D2 (IgG형) (antibody, V domains shown) VH: QMQLVQSGGGLVQPGGSLRLSCAASGFTFSSFEMNWVRQAPGKGLEWLSYISNSGSTIYYADSVKGRFTISRDNAKNSLYLQMNSLRAEDTAVYYCARDSRYYGIHGMDVWGQGTTITVSS VL: DIQMTQSPSSLSASVGDRVTITCRASQTISTYLNWYQQKPGKAPKLLIYAASSLQSGVPSRFSGSGSGTDFTLTISSLQPEDFATYYCQQSSSTPRTFGQGTRLEIK |
